Results on 25 sequences are retold here after the supplement of paper PMC9233669.

The test system of one data set is biotinyl-Phe-oxazolone. Put plainly: self-aminoacylation, catalytic enhancement (BFO) (fold over background); higher = more active; k-Seq, kA / k0A0; sequences stand for … in GGGAAUGGAUCCACAUCUACGAAUUC…UUCACUGCAGACUUGACGAAGCUG
In a few lines: (§1)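 Mutagenized RNA pools with a 21-nt variable region (0.43 μM) reacted with each biotinyl-aminoacyl-oxazolone at 2–1250 μM. Reactions ran in 50 μL HEPES/NaCl/KCl/MgCl2/CaCl2 buffer with 5% acetonitrile, pH 6.9–7.0, for 90 minutes at room temperature. Streptavidin-captured RNA was quantified by triplicate qPCR and Illumina sequencing, and per-sequence fraction reacted was fit to a pseudo-first-order model with 1000 bootstraps. Catalytic enhancement is median kA divided by the uncatalyzed rate, the low-activity peak of a bimodal Gaussian fit.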

A further data set concerns biotinyl-Ile-oxazolone. Kind of data set: self-aminoacylation, catalytic enhancement (BIO) (fold over background); higher = more active; k-Seq, kA / k0A0; sequences stand for … in GGGAAUGGAUCCACAUCUACGAAUUC…UUCACUGCAGACUUGACGAAGCUG
The essentials: as §1

The next data set deals with biotinyl-Met-oxazolone. Put plainly: self-aminoacylation, catalytic enhancement (BMO) (fold over background); higher = more active; k-Seq, kA / k0A0; sequences stand for … in GGGAAUGGAUCCACAUCUACGAAUUC…UUCACUGCAGACUUGACGAAGCUG
In a few lines: as §1

For another data set, the system named is biotinyl-Val-oxazolone. Put plainly: self-aminoacylation, catalytic enhancement (BVO) (fold over background); higher = more active; k-Seq, kA / k0A0; sequences stand for … in GGGAAUGGAUCCACAUCUACGAAUUC…UUCACUGCAGACUUGACGAAGCUG
The essentials: as §1

The test system of a further data set is biotinyl-Leu-oxazolone. Put plainly: self-aminoacylation, catalytic enhancement (BLO) (fold over background); higher = more active; k-Seq, kA / k0A0; sequences stand for … in GGGAAUGGAUCCACAUCUACGAAUUC…UUCACUGCAGACUUGACGAAGCUG
The essentials: as §1

The next data set has as its system biotinyl-Trp-oxazolone. Kind of data set: self-aminoacylation, catalytic enhancement (BWO) (fold over background); higher = more active; k-Seq, kA / k0A0; sequences stand for … in GGGAAUGGAUCCACAUCUACGAAUUC…UUCACUGCAGACUUGACGAAGCUG
In a few lines:
as §1

Variants at the floor of the assay were thinned out.

On to “AAGUUUGCUGAGAGUCGCAAG [Fam3.1 aminoacylation ribozyme variant]”, for which the self-aminoacylation in the data set with biotinyl-Phe-oxazolone was 1.91; in the data set on biotinyl-Ile-oxazolone it was 0.969; in the data set on biotinyl-Met-oxazolone it was 1.01; with biotinyl-Val-oxazolone, 0.873; in the data set with biotinyl-Leu-oxazolone, 1.03; in the data set on biotinyl-Trp-oxazolone it was 1.18.
As to “AUCCACCCAGGUCAUCGGGUG [Fam2.2 aminoacylation ribozyme variant]”, the self-aminoacylation is 40 in the data set on biotinyl-Phe-oxazolone; 4.15 in the data set with biotinyl-Ile-oxazolone; 5.87 in the data set with biotinyl-Met-oxazolone; 5.18 in the data set on biotinyl-Val-oxazolone; 7.15 in the data set with biotinyl-Leu-oxazolone; 7.4 in the data set with biotinyl-Trp-oxazolone.
For the sequence “AUUACCCUGGUCAUCGGGUGU [Fam2.1 aminoacylation ribozyme variant]”, the self-aminoacylation in the data set on biotinyl-Phe-oxazolone is 722; in the data set with biotinyl-Ile-oxazolone it was 40.7; in the data set with biotinyl-Met-oxazolone, 123; in the data set on biotinyl-Val-oxazolone it was 56.5; in the data set with biotinyl-Leu-oxazolone, 136; in the data set on biotinyl-Trp-oxazolone it was 133.
Regarding “AAGUAUGCUAAUAGUCGCAAA [Fam3.1 aminoacylation ribozyme variant]”, the self-aminoacylation with biotinyl-Phe-oxazolone came to 3.99; in the data set with biotinyl-Ile-oxazolone it was 1.82; in the data set with biotinyl-Met-oxazolone it was 1.67; with biotinyl-Val-oxazolone, 1.96; with biotinyl-Leu-oxazolone, 1.26; with biotinyl-Trp-oxazolone it was 1.7.
For “AAGUUUGCUAACAGUCGCAAU [Fam3.1 aminoacylation ribozyme variant]”, the self-aminoacylation with biotinyl-Phe-oxazolone is 0.994; with biotinyl-Ile-oxazolone it was 1.13; in the data set on biotinyl-Met-oxazolone, 1.22; in the data set on biotinyl-Val-oxazolone, 0.959; with biotinyl-Leu-oxazolone, 0.968; in the data set on biotinyl-Trp-oxazolone, 1.58.
Regarding “AUUCACCUGGGUCCUCGGGUG [Fam2.2 aminoacylation ribozyme variant]”, the self-aminoacylation in the data set with biotinyl-Phe-oxazolone amounted to 39; in the data set on biotinyl-Ile-oxazolone, 4.33; with biotinyl-Met-oxazolone it was 6.49; in the data set with biotinyl-Val-oxazolone, 4.67; with biotinyl-Leu-oxazolone, 7.74; with biotinyl-Trp-oxazolone, 6.22.
As for “CCACUUCAACCAAUCGGUCUG [Fam1A.1 aminoacylation ribozyme variant]”, the self-aminoacylation worked out at 73.2 in the data set with biotinyl-Phe-oxazolone; 1.68 with biotinyl-Ile-oxazolone; 1.7 with biotinyl-Met-oxazolone; 2.01 in the data set with biotinyl-Val-oxazolone; 2.76 in the data set on biotinyl-Leu-oxazolone; 36.4 in the data set on biotinyl-Trp-oxazolone.
For “AUACUUCAAACAAUAGGUCUG [Fam1A.1 aminoacylation ribozyme variant]”, the self-aminoacylation in the data set with biotinyl-Phe-oxazolone was found to be 1.25; with biotinyl-Ile-oxazolone, 1.08; with biotinyl-Met-oxazolone, 0.812; with biotinyl-Val-oxazolone, 0.923; with biotinyl-Leu-oxazolone it was 0.835; with biotinyl-Trp-oxazolone it was 0.803.
“CUACUUCAAAAAAUCGGUCCG [Fam1A.1 aminoacylation ribozyme variant]”: the self-aminoacylation in the data set with biotinyl-Phe-oxazolone turned out to be 1.57; in the data set with biotinyl-Ile-oxazolone, 0.724; in the data set on biotinyl-Met-oxazolone it was 0.749; in the data set with biotinyl-Val-oxazolone, 0.604; in the data set with biotinyl-Leu-oxazolone it was 0.761; in the data set with biotinyl-Trp-oxazolone, 1.31.
For the sequence “AUUACGCUGGUCAUAGAGUGA [Fam2.1 aminoacylation ribozyme variant]”, the self-aminoacylation amounted to 7.49 in the data set on biotinyl-Phe-oxazolone; 2.33 in the data set on biotinyl-Ile-oxazolone; 3.31 in the data set on biotinyl-Met-oxazolone; 2.23 in the data set on biotinyl-Val-oxazolone; 3.54 in the data set on biotinyl-Leu-oxazolone; 4.14 with biotinyl-Trp-oxazolone.
With “AUUCCCCUAGGUCAUCGGGUU [Fam2.2 aminoacylation ribozyme variant]”, the self-aminoacylation in the data set with biotinyl-Phe-oxazolone came out at 36.7; in the data set with biotinyl-Ile-oxazolone it was 6.34; with biotinyl-Met-oxazolone it was 5.77; in the data set on biotinyl-Val-oxazolone, 6.74; with biotinyl-Leu-oxazolone, 8.02; with biotinyl-Trp-oxazolone, 7.29.
On to “CCCCACUUCAAGCCAUCGGUC [Fam1B.1 aminoacylation ribozyme variant]”, for which the self-aminoacylation amounted to 10 in the data set with biotinyl-Phe-oxazolone; 2.33 in the data set on biotinyl-Ile-oxazolone; 2.87 with biotinyl-Met-oxazolone; 2.82 with biotinyl-Val-oxazolone; 2.63 with biotinyl-Leu-oxazolone; 4.79 in the data set on biotinyl-Trp-oxazolone.
With “AUUACCCUGGUAAUCGAGUGA [Fam2.1 aminoacylation ribozyme variant]”, the self-aminoacylation came out at 54.5 in the data set with biotinyl-Phe-oxazolone; 3.7 in the data set with biotinyl-Ile-oxazolone; 8.63 in the data set with biotinyl-Met-oxazolone; 3.82 in the data set on biotinyl-Val-oxazolone; 8.46 in the data set on biotinyl-Leu-oxazolone; 9.96 in the data set on biotinyl-Trp-oxazolone.
As to “AAGUUUGCUAAUGGUCGGAAG [Fam3.1 aminoacylation ribozyme variant]”, the self-aminoacylation worked out at 1.55 with biotinyl-Phe-oxazolone; 0.861 in the data set with biotinyl-Ile-oxazolone; 0.811 in the data set with biotinyl-Met-oxazolone; 0.91 in the data set with biotinyl-Val-oxazolone; 0.849 in the data set with biotinyl-Leu-oxazolone; 0.587 with biotinyl-Trp-oxazolone.
“CCACAUUUCACGCAAUCGGUC [Fam1B.1 aminoacylation ribozyme variant]”: the self-aminoacylation in the data set on biotinyl-Phe-oxazolone was 2.13; in the data set with biotinyl-Ile-oxazolone it was 2.33; with biotinyl-Met-oxazolone, 2.75; in the data set on biotinyl-Val-oxazolone, 2.68; in the data set with biotinyl-Leu-oxazolone, 2.68; in the data set on biotinyl-Trp-oxazolone, 2.16.
“UUUACCCUGGUCAUCGUGUGA [Fam2.1 aminoacylation ribozyme variant]”: the self-aminoacylation in the data set with biotinyl-Phe-oxazolone was determined as 15.3; with biotinyl-Ile-oxazolone, 1.66; in the data set on biotinyl-Met-oxazolone it was 2.98; in the data set with biotinyl-Val-oxazolone it was 2.06; with biotinyl-Leu-oxazolone it was 3.11; in the data set on biotinyl-Trp-oxazolone it was 3.71.
As for “AUUACCAUGGUCAUCGGGUGA [Fam2.1 aminoacylation ribozyme variant]”, the self-aminoacylation was determined as 96 with biotinyl-Phe-oxazolone; 6.52 in the data set on biotinyl-Ile-oxazolone; 14.7 with biotinyl-Met-oxazolone; 7.28 with biotinyl-Val-oxazolone; 13.6 in the data set on biotinyl-Leu-oxazolone; 16.2 in the data set on biotinyl-Trp-oxazolone.
“CUACUUAAAAAAAUCGGUCUG [Fam1A.1 aminoacylation ribozyme variant]”: the self-aminoacylation was found to be 0.661 in the data set on biotinyl-Phe-oxazolone; 0.88 with biotinyl-Ile-oxazolone; 0.806 in the data set with biotinyl-Met-oxazolone; 0.804 in the data set on biotinyl-Val-oxazolone; 0.768 in the data set on biotinyl-Leu-oxazolone; 0.49 in the data set on biotinyl-Trp-oxazolone.
As to “CUGCUUCAAACAAUCAGUCUG [Fam1A.1 aminoacylation ribozyme variant]”, the self-aminoacylation stood at 40.5 in the data set on biotinyl-Phe-oxazolone; 0.738 in the data set with biotinyl-Ile-oxazolone; 0.723 in the data set with biotinyl-Met-oxazolone; 0.77 in the data set with biotinyl-Val-oxazolone; 1.21 in the data set with biotinyl-Leu-oxazolone; 12.5 in the data set on biotinyl-Trp-oxazolone.
Turning to “AUUACCCGGGUCAUCGAGAGA [Fam2.1 aminoacylation ribozyme variant]”, the self-aminoacylation with biotinyl-Phe-oxazolone amounted to 0.475; in the data set with biotinyl-Ile-oxazolone, 1.22; with biotinyl-Met-oxazolone, 1.05; in the data set with biotinyl-Val-oxazolone, 1.22; in the data set on biotinyl-Leu-oxazolone, 1.01; in the data set with biotinyl-Trp-oxazolone, 1.24.
As for “GUUCACCUAGUUCAUCGGGUG [Fam2.2 aminoacylation ribozyme variant]”, the self-aminoacylation in the data set on biotinyl-Phe-oxazolone was 15.4; in the data set with biotinyl-Ile-oxazolone, 2.79; with biotinyl-Met-oxazolone it was 2.66; in the data set with biotinyl-Val-oxazolone it was 2.9; in the data set on biotinyl-Leu-oxazolone, 2.37; with biotinyl-Trp-oxazolone, 4.15.
For the sequence “AUUCACCUCCGUCAUCGGGUG [Fam2.2 aminoacylation ribozyme variant]”, the self-aminoacylation in the data set with biotinyl-Phe-oxazolone amounted to 70.3; in the data set on biotinyl-Ile-oxazolone it was 5.62; in the data set with biotinyl-Met-oxazolone, 8.59; in the data set with biotinyl-Val-oxazolone, 4.91; in the data set with biotinyl-Leu-oxazolone, 10.8; in the data set on biotinyl-Trp-oxazolone it was 8.32.
As for “AUUCACCUAGGUAAUCGGUUG [Fam2.2 aminoacylation ribozyme variant]”, the self-aminoacylation in the data set with biotinyl-Phe-oxazolone came out at 0.536; with biotinyl-Ile-oxazolone it was 0.71; with biotinyl-Met-oxazolone, 0.735; in the data set with biotinyl-Val-oxazolone it was 0.687; with biotinyl-Leu-oxazolone, 0.91; in the data set with biotinyl-Trp-oxazolone, 0.967.
For “AAUUUUGCUAAUAGUAGCAAG [Fam3.1 aminoacylation ribozyme variant]”, the self-aminoacylation amounted to 1.11 in the data set with biotinyl-Phe-oxazolone; 1.41 with biotinyl-Ile-oxazolone; 1.31 with biotinyl-Met-oxazolone; 1.37 in the data set on biotinyl-Val-oxazolone; 1.75 in the data set with biotinyl-Leu-oxazolone; 0.996 in the data set with biotinyl-Trp-oxazolone.
As for “AGUCACCUAGGUUAUCGGGUG [Fam2.2 aminoacylation ribozyme variant]”, the self-aminoacylation was 32.2 with biotinyl-Phe-oxazolone; 4.39 in the data set with biotinyl-Ile-oxazolone; 4.56 in the data set with biotinyl-Met-oxazolone; 4.56 in the data set with biotinyl-Val-oxazolone; 4.68 in the data set with biotinyl-Leu-oxazolone; 6.62 with biotinyl-Trp-oxazolone.
